12 molecules from patent publication EP4707292A2 (The University of North Carolina at Chapel Hill, dated 2026) can be followed below.

Assay [1] concerns the target T1, Adeno-associated virus 9 (AAV9) virion (adeno-associated virus 9).
T1 construct: Intact virion; capsid of VP1, VP2, VP3; also called AAV9/luc; AAV9 capsid
The assay can be described thus: co-IP with ADK9/LC-MS/MS, AAV9 + human serum vs control.

Assay [2] deals with T2, Adeno-associated virus 8 (AAV8) virion (adeno-associated virus 8).
T2 construct: Intact virion with packaged vector genome; capsid of 60 subunits (VP1, VP2, VP3, overlapping products of one cap gene); also called AAV8/luc; AAV8 capsid
The assay can be described thus: co-IP/LC-MS/MS, AAV8 + human serum vs PBS control.

B1: CD5 antigen-like (other)
chain: SPSGVRLVGGLHRCEGRVEVEQKGQWGTVCDDGWDIKDVAVLCRELGCGAASGTPSGILYEPPAEKEQKVLIQSVSCTGTEDTLAQCEQEEVYDCSHDEDAGASCENPESSFSPVPEGVRLADGPGHCKGRVEVKHQNQWYTVCQTGWSLRAAKVVCRQLGCGRAVLTQKRCNKHAYGRKPIWLSQMSCSGREATLQDCPSGPWGKNTCNHDEDTWVECEDPFDLRLVGGDNLCSGRLEVLHKGVWGSVCDDNWGEKEDQVVCKQLGCGKSLSPSFRDRKCYGPGVGRIWLDNVRCSGEEQSLEQCQHRFWGFHDCTHQEDVAVICSG
notes: also called CD5L
Turning to B1, the “fold change” value in assay [1] and in assay [2] was 1.23 fold throughout.

B2: Isoform 2 of Haptoglobin-related protein (other)
chain: MHVCVCVCVCVYMPVCVDACMCCEAGRPAFRSFLFSLCSDLGAVISLLLWGRQLFALYSGNDVTDISDDRFPKPPEIANGYVEHLFRYQCKNYYRLRTEGDGVYTLNDKKQWINKAVGDKLPECEAVCGKPKNPANPVQRILGGHLDAKGSFPWQAKMVSHHNLTTGATLINEQWLLTTAKNLFLNHSENATAKDIAPTLTLYVGKKQLVEIEKVVLHPNYHQVDIGLIKLKQKVLVNERVMPICLPSKNYAEVGRVGYVSGWGQSDNFKLTDHLKYVMLPVADQYDCITHYEGSTCPKWKAPKSPVGVQPILNEHTFCVGMSKYQEDTCYGDAGSAFAVHDLEEDTWYAAGILSFDKSCAVAEYGVYVKVTSIQHWVQKTIAEN
notes: also called HPR
On to B2, for which the “fold change” value in assay [1] and in assay [2] was 2.82 fold each time.

B3: Isoform 2 of Ig mu chain C region (other)
chain: GSASAPTLFPLVSCENSPSDTSSVAVGCLAQDFLPDSITFSWKYKNNSDISSTRGFPSVLRGGKYAATSQVLLPSKDVMQGTDEHVVCKVQHPNGNKEKNVPLPVIAELPPKVSVFVPPRDGFFGNPRKSKLICQATGFSPRQIQVSWLREGKQVGSGVTTDQVQAEAKESGPTTYKVTSTLTIKESDWLGQSMFTCRVDHRGLTFQQNASSMCVPDQDTAIRVFAIPPSFASIFLTKSTKLTCLVTDLTTYDSVTISWTRQNGEAVKTHTNISESHPNATFSAVGEASICEDDWNSGERFTCTVTHTDLPSPLKQTISRPKGVALHRPDVYLLPPAREQLNLRESATITCLVTGFSPADVFVQWMQRGQPLSPEKYVTSAPMPEPQAPGRYFAHSILTVSEEEWNTGETYTCVVAHEALPNRVTERTVDKSTEGEVSADEEGFENLWATASTFIVLFLLSLFYSTTVTLFKVK
notes: also called IGHM
As to B3, the “fold change” value in assay [1] and in assay [2] was 3 fold throughout.

B4: Apolipoprotein C-I (other)
chain: TPDVSSALDKLKEFGNTLEDKARELISRIKQSELSAKMREWFSETFQKVKEKLKIDS
notes: also called APOC1
With B4, the “fold change” value in assay [1] and in assay [2] was 2 fold in each case.

B5: Protein fem-1 homolog A (other)
chain: MDLRTAVYNAARDGKLQLLQKLLSGRSREELDELTGEVAGGGTPLLIAARYGHLDVVEYLVDRCGASVEAGGSVHFDGETIEGAPPLWAASAAGHLDVVRSLLRRGASVNRTTRTNSTPLRAACFDGHLEVVRYLVGEHQADLEVANRHGHTCLMISCYKGHREIARYLLEQGAQVNRRSAKGNTALHDCAESGSLEILQLLLGCKARMERDGYGMTPLLAASVTGHTNIVEYLIQEQPGQEQVAGGEAQPGLPQEDPSTSQGCAQPQGAPCCSSSPEEPLNGESYESCCPTSREAAVEALELLGATYVDKKRDLLGALKHWRRAMELRHQGGEYLPKPEPPQLVLAYDYSREVNTTEELEALITDPDEMRMQALLIRERILGPSHPDTSYYIRYRGAVYADSGNFERCIRLWKYALDMQQSNLEPLSPMTASSFLSFAELFSYVLQDRAAKGSLGTQIGFADLMGVLTKGVREVERALQLPREPGDSAQFTKALAIILHLLYLLEKVECTPSQEHLKHQTVYRLLKCAPRGKNGFTPLHMAVDKDTTNVGRYPVGRFPSLHVVKVLLDCGADPDSRDFDNNTPLHIAAQNNCPAIMNALIEAGAHMDATNAFKKTAYELLDEKLLARGTMQPFNYVTLQCLAARALDKNKIPYKGFIPEDLEAFIELH
notes: also called FEM1A
On to B5, for which the “fold change” value in assay [1] and in assay [2] was 0.264 fold throughout.

B6: Ig gamma-2 chain C region (other)
chain: ASTKGPSVFPLAPCSRSTSESTAALGCLVKDYFPEPVTVSWNSGALTSGVHTFPAVLQSSGLYSLSSVVTVPSSNFGTQTYTCNVDHKPSNTKVDKTVERKCCVECPPCPAPPVAGPSVFLFPPKPKDTLMISRTPEVTCVVVDVSHEDPEVQFNWYVDGVEVHNAKTKPREEQFNSTFRVVSVLTVVHQDWLNGKEYKCKVSNKGLPAPIEKTISKTKGQPREPQVYTLPPSREEMTKNQVSLTCLVKGFYPSDISVEWESNGQPENNYKTTPPMLDSDGSFFLYSKLTVDKSRWQQGNVFSCSVMHEALHNHYTQKSLSLSPGK
notes: also called IGHG2
Consider B6, for which the “fold change” value in assay [1] and in assay [2] was 5.06 fold each time.

B7: Kininogen-1 (other)
chain: QESQSEEIDCNDKDLFKAVDAALKKYNSQNQSNNQFVLYRITEATKTVGSDTFYSFKYEIKEGDCPVQSGKTWQDCEYKDAAKAATGECTATVGKRSSTKFSVATQTCQITPAEGPVVTAQYDCLGCVHPISTQSPDLEPILRHGIQYFNNNTQHSSLFMLNEVKRAQRQVVAGLNFRITYSIVQTNCSKENFLFLTPDCKSLWNGDTGECTDNAYIDIQLRIASFSQNCDIYPGKDFVQPPTKICVGCPRDIPTNSPELEETLTHTITKLNAENNATFYFKIDNVKKARVQVVAGKKYFIDFVARETTCSKESNEELTESCETKKLGQSLDCNAEVYVVPWEKKIYPTVNCQPLGMISLMKRPPGFSPFRSSRIGEIKEETTVSPPHTSMAPAQDEERDSGKEQGHTRRHDWGHEKQRKHNLGHGHKHERDQGHGHQRGHGLGHGHEQQHGLGHGHKFKLDDDLEHQGGHVLDHGHKHKHGHGHGKHKNKGKKNGKHNGWKTEHLASSSEDSTTPSAQTQEKTEGPTPIPSLAKPGVTVTFSDFQDSDLIATMMPPISPAPIQSDDDWIPDIQIDPNGLSFNPISDFPDTTSPKCPGRPWKSVSEINPTTQMKESYYFDLTDGLS
notes: also called KNG1
Regarding B7, the “fold change” value in assay [1] and in assay [2] was 0.419 fold each time.

B8: Hemopexin (other)
chain: TPLPPTSAHGNVAEGETKPDPDVTERCSDGWSFDATTLDDNGTMLFFKGEFVWKSHKWDRELISERWKNFPSPVDAAFRQGHNSVFLIKGDKVWVYPPEKKEKGYPKLLQDEFPGIPSPLDAAVECHRGECQAEGVLFFQGDREWFWDLATGTMKERSWPAVGNCSSALRWLGRYYCFQGNQFLRFDPVRGEVPPRYPRDVRDYFMPCPGRGHGHRNGTGHGNSTHHGPEYMRCSPHLVLSALTSDNHGATYAFSGTHYWRLDTSRDGWHSWPIAHQWPQGPSAVDAAFSWEEKLYLVQGTQVYVFLTKGGYTLVSGYPKRLEKEVGTPHGIILDSVDAAFICPGSSRLHIMAGRRLWWLDLKSGAQATWTELPWPHEKVDGALCMEKSLGPNSCSANGPGLYLIHGPNLYCYSDVEKLNAAKALPQPQNVTSLLGCTH
notes: also called HPX
Consider B8, for which the “fold change” value in assay [1] and in assay [2] was 30.7 fold throughout.

B9: Glutathione peroxidase 3 (enzyme)
chain: QSRGQEKSKMDCHGGISGTIYEYGALTIDGEEYIPFKQYAGKYVLFVNVASYUGLTGQYIELNALQEELAPFGLVILGFPCNQFGKQEPGENSEILPTLKYVRPGGGFVPNFQLFEKGDVNGEKEQKFYTFLKNSCPPTSELLGTSDRLFWEPMKVHDIRWNFEKFLVGPDGIPIMRWHHRTTVSNVKMDILSYMRRQAALGVKRK
notes: also called GPX3
As for B9, the “fold change” value in assay [1] and in assay [2] was 2.74 fold throughout.

B10: Ig gamma-3 chain C region (other)
chain: ASTKGPSVFPLAPCSRSTSGGTAALGCLVKDYFPEPVTVSWNSGALTSGVHTFPAVLQSSGLYSLSSVVTVPSSSLGTQTYTCNVNHKPSNTKVDKRVELKTPLGDTTHTCPRCPEPKSCDTPPPCPRCPEPKSCDTPPPCPRCPEPKSCDTPPPCPRCPAPELLGGPSVFLFPPKPKDTLMISRTPEVTCVVVDVSHEDPEVQFKWYVDGVEVHNAKTKPREEQYNSTFRVVSVLTVLHQDWLNGKEYKCKVSNKALPAPIEKTISKTKGQPREPQVYTLPPSREEMTKNQVSLTCLVKGFYPSDIAVEWESSGQPENNYNTTPPMLDSDGSFFLYSKLTVDKSRWQQGNIFSCSVMHEALHNRFTQKSLSLSPGK
notes: also called IGHG3
Regarding B10, the “fold change” value in assay [1] and in assay [2] was 6.33 fold throughout.

B11: Beta-2-glycoprotein 1 (other)
chain: GRTCPKPDDLPFSTVVPLKTFYEPGEEITYSCKPGYVSRGGMRKFICPLTGLWPINTLKCTPRVCPFAGILENGAVRYTTFEYPNTISFSCNTGFYLNGADSAKCTEEGKWSPELPVCAPIICPPPSIPTFATLRVYKPSAGNNSLYRDTAVFECLPQHAMFGNDTITCTTHGNWTKLPECREVKCPFPSRPDNGFVNYPAKPTLYYKDKATFGCHDGYSLDGPEEIECTKLGNWSAMPSCKASCKVPVKKATVVYQGERVKIQEKFKNGMLHGDKVSFFCKNKEKKCSYTEDAQCIDGTIEVPKCFKEHSSLAFWKTDASDVKPC
notes: also called APOH
Take B11: the “fold change” value in assay [1] and in assay [2] was 3.43 fold in each case.

B12: C4b-binding protein alpha chain (other)
chain: NCGPPPTLSFAAPMDITLTETRFKTGTTLKYTCLPGYVRSHSTQTLTCNSDGEWVYNTFCIYKRCRHPGELRNGQVEIKTDLSFGSQIEFSCSEGFFLIGSTTSRCEVQDRGVGWSHPLPQCEIVKCKPPPDIRNGRHSGEENFYAYGFSVTYSCDPRFSLLGHASISCTVENETIGVWRPSPPTCEKITCRKPDVSHGEMVSGFGPIYNYKDTIVFKCQKGFVLRGSSVIHCDADSKWNPSPPACEPNSCINLPDIPHASWETYPRPTKEDVYVVGTVLRYRCHPGYKPTTDEPTTVICQKNLRWTPYQGCEALCCPEPKLNNGEITQHRKSRPANHCVYFYGDEISFSCHETSRFSAICQGDGTWSPRTPSCGDICNFPPKIAHGHYKQSSSYSFFKEEIIYECDKGYILVGQAKLSCSYSHWSAPAPQCKALCRKPELVNGRLSVDKDQYVEPENVTIQCDSGYGVVGPQSITCSGNRTWYPEVPKCEWETPEGCEQVLTGKRLMQCLPNPEDVKMALEVYKLSLEIEQLELQRDSARQSTLDKEL
notes: also called C4BPA
As to B12, the “fold change” value in assay [1] and in assay [2] was 1.53 fold throughout.
